Measurements reported in paper PMC6917740.

Target: T1, 12 amino acid peptide (HSET-N) labeled with biotin at the N-terminus (bio-…)
T1 sequence (peptide, biotin at the N-terminus): EDGLEPEKKRTR
Test: SPR; BIAcore T200, 25 °C; biotinylated peptide immobilised on a Series S sensor chip SA at 10-40 RU; antibodies injected 3 min at 30 µl/min in HBS-EP (10 mM HEPES pH 7.4, 250 mM NaCl, 3 mM EDTA, 0.05% P-20); at least five concentrations; 1:2 binding model, which reflects the avidity effect; KD = …

B1: mouse 6C407 IgG2a/κ (antibody, V domains shown)
VH: EVQLQQSGAELVKPGASVKLSCTASGFNIKDTYIHWVKQRPEQGLEWIGRIDPANGNTKYDPKFQGKATITADTSSNTAYLQLSSLTSEDTAVYYCARGYGSRSAMDYWGQGTSVTVS
VL: DIVLTQSPASLAVSLGQRATISCRASKSVSTSGYSYMLWYQQKPGQPPKLLIYLASNLESGVPARFSGSGSGTDFTLNIHPVEEEDAATYYCQHSRELPWTFGGGTKLEIK
With B1 the Kd was 2.45 nM, the koff was 0.00138 s⁻¹ and the kon was 567000 M⁻¹ s⁻¹.

B2: chimeric mouse-chicken MC-6C407 IgY/λ (antibody, V domains shown)
VH: B1 VH
VL: B1 VL
With B2 the Kd was 1.24 nM, the koff was 0.000632 s⁻¹ and the kon was 511000 M⁻¹ s⁻¹.
